This note sets out measurements from paper PMC2996635 (Journal of immunology (Baltimore, Md. : 1950), 2010).

Holding throughout (assay): SEC
For series [1], the target named is hrCD5-His (human CD5 domain 1 and rat CD5 domains 2 and 3, His tag) (human | rat).
Series [2] addresses mCD5-His (extracellular region of mouse CD5 fused to a His tag) (mouse).
The series “SEC” concerns the molecule itself.

In series [1], “hrCD5-His (human CD5 domain 1 and rat CD5 domains 2 and 3, His tag)” displayed a stoichiometry N of 2.

On to “mCD5-His (extracellular region of mouse CD5 fused to a His tag) (domain or fragment)”, for which, in series [2], the stoichiometry N amounted to 2.

B1: hCD5-His (extracellular region of human CD5 fused to a His tag) (domain or fragment, UniProt P06127 25-372, looked up)
chain: RLSWYDPDFQARLTRSNSKCQGQLEVYLKDGWHMVCSQSWGRSSKQWEDPSQASKVCQRLNCGVPLSLGPFLVTYTPQSSIICYGQLGSFSNCSHSRNDMCHSLGLTCLEPQKTTPPTTRPPPTTTPEPTAPPRLQLVAQSGGQHCAGVVEFYSGSLGGTISYEAQDKTQDLENFLCNNLQCGSFLKHLPETEAGRAQDPGEPREHQPLPIQWKIQNSSCTSLEHCFRKIKPQKSGRVLALLCSGFQPKVQSRLVGGSSICEGTVEVRQGAQWAALCDSSSARSSLRWEEVCREQQCGSVNSYRVLDAGDPTSRGLFCPHQKLSQCHELWERNSYCKKVFVTCQDPNP
On to B1, for which the “stoichiometry N” value in the series “SEC” is 2.
